The target in assay [1] is Sos1-X′ peptide (Homo sapiens). Description: NMR.
The target of assay [2] is Sos1-X′ peptide (Homo sapiens). Description: NMR. This is another data set of the same source.

Read-outs that look alike come from different tables or passages of the source.

B1: Grb2 N-SH3 2-59, P62993 (protein)
chain: EAIAKYDFKATADDELSFKRGDILKVLNEESDQNWYKAELNGKDGFIPKNYIEMKPHP
As usually defined, the Kd is a measure of binding affinity in units of concentration. Turning to B1, the dissociation constant Kd was 4.6 µM in assay [1] and 4.9 µM in assay [2].

The values above are taken from PMC6934455, “Molecular Dynamics model of peptide-protein conjugation: case study of covalent complex between Sos1 peptide and N-terminal SH3 domain from Grb2” (Scientific Reports, 2019).
